# Source: the nanobody polyreactivity screen of Harvey et al. (2022)
# Experiment: yeast display, Sf9 membrane polyspecificity reagent, FACS + sequencing; frameworks hold sequencing errors
# In short: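 Galactose induction of a Saccharomyces cerevisiae BJ5465 synthetic nanobody display library ran 36–48 hours. The cells were then stained for 1 hour at 4 °C with 10% biotinylated, detergent-solubilized Sf9 membrane reagent, pulled down on streptavidin microbeads and FACS-sorted into low and high (top ~1%) gates on expression and reagent-binding fluorescence. Labels for polyreactivity follow the gate of origin.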
row,Sequence,polyreactivity (PSR sort gate)
1,QVQLVESGGGLVQAGGSLRLSCAASGSTFSGYAMGWYRQAPGKERDLVAAITKSGGRTYYADSVKGRFTISRDNAQNTVYLQMNSLKQEDTAVYYCAKAYPGTYREYDYWGQGTQVTVSS,high polyreactivity
2,QVQLVESGGGLVQAVGSLRLSCAASGLIFKKYAMGWYRQAPGKERELVATITSRGGSTYYADSVKGRFTISRDNAKNTVYLQMNSLKPEDTAVYYCAARFGFYTAYTYNYWGQGTQVTVSS,high polyreactivity
3,QVQLVESGGGLVQAGGSVRLSCAASGSIFGYYALGWYRQAPGTERELVAAISSGGSTKYADSVKGRFTISRDNAKNTVYLQMNSLKPEDTAVYYCATRIRSGSYPYPRYDYWGQGTQVTVSS,high polyreactivity
4,QVQLGESGGGLVQAVGSLRLSCAASGITFVYYAMGWSRQEPGKERELVSSISSADNTNYADSVKGRFTISRDNAKNTVYLQMNSLKPEDTAVYYCAADYWWHLRHYSTGGYWGQGTQVTVSS,low polyreactivity
5,QVQLVESGGRLVQAGASLRLSCAASGFTLHWYAMGWYRQAPGKERELVASITNTGRTYYADSVKGRFTISRDNAKNTVYLQINILKPEDTAVYYCAAGTQYSHYYVADYCRDYWGQGTQVTVSS,high polyreactivity
6,QVQLVESGGRLVQAGGSLRLSCAASGFIFCLNAMGWYRHAQGKERELVATIDNSGGSTYADSVKGRFTISRDNAKNTVYLQMNSLKPEVTAVYYCARDDGLLSYGYWGQGTQVTVSS,low polyreactivity
7,QVQLVETGGGLVQAGGSLRLSCAASGSTFSRYPMGWYRQAPGKEWELVAAITGTGGRTYYADSVKGRFTISRDNEKNTVYLLMNSLKPEDTAVYYCAAQRWTVKYNYWGQGTQVTVSS,high polyreactivity
8,QVQLVESGGGLVQAGGSLRLSCAASGIIFGGNVMGWYRQAPGKERELVAAITWSGGTTYYADSVKGRFTISRDNAKNTVFLQMNSLKPEDTAVYYCAADRVYLDYVAGTYDYWGQGTQVTVSS,low polyreactivity
9,QVQLVESGGGLVQAGGSLRLSCAASGSIFRRYAMGWYRQAPGKERELVAAIDSSGGTSYADSVKGRFTISRDNAKNTVYLQMNILKPEDTAVYYCATSFSWKGRKYGYWGQGTQVTVSS,high polyreactivity
10,QVQLVESGGGLVQAGGSLRLSCAACGNIFGPYAMGWYRQAPGKERELVAAISFTGVSTYYADSVKGRFTISRDNAKNTVYLQMNSLKPEDTAVYYCSYYRSSTYYYWGQGTQVTVSS,high polyreactivity
11,QVQLVESGGGLVQAGGSLRLSCAASGRTFKTYAMGWYRQAPGKERELVAAIDSGGNTYADSVKGRFTISRDNAKNTVYLQMNSLKPEDTAVYYCAVDGGEFSSYGYWGHGTQVTVSS,low polyreactivity
12,QVQLVESGGGLVQAGGSLRLSCAASGSIFGYYAMGWYRQAPGKERELVASISGSGGTTYFADSVKGRFTISRDNAKNTVYLQMNSLKPEDTAVYYCAARRSIYGYPFVTSRRGYWGQGTQVTVSS,high polyreactivity
13,QVHHEETGGGIVQAGGSLRLSCAASGRIFDYIAMGWYRQAPGKERELVAAISQSGGSTYYADSVKGRFTISRDNAKNTVYLQMNSLKPEDTAVYYCAAFISRSRNEYWGQGTLVTVSS,high polyreactivity
14,QVQLVESGGGLVQAGGSLRLSCAASGNTFYWYVMGWYRQAPGKERELVARITSSGGSTNYADSVKGRFTISRDNAKNTVYLQMNSLKPEDTAVYYCAADDIYLYGGGTDYYFWGQGTQVTVSS,low polyreactivity
15,QVQLVESGGGLVQAGGSLRLSCAASGRIFRWYGMGWYRQAPGKERELVAAITSGGSTHYADSVKGRFTISRDNAKNTVYLQMNSLKPEDTAVYYCAADPYHLQTRFSGLAEFYYWGQGTQVTVSS,low polyreactivity
16,QVQLVESGGGLVQAGGSLRLSCAASGFIFTTYAMGWYRQAPGKERELVAAISTSGGRTYYADSVKGRFTISRDNAKNTVYLQMNSLKPEDTAVYYCNTYSYYSYDWGQGTQVTVSS,high polyreactivity
17,QDQLVESVGCLVQAGGSLRLSCAATGRIFQSYAMGWYRQAPGKERELVAGIRAGGGRTYYADSVKGRFTISRDIAKNTVYVQMNSLKPEDTAVDYCAARFVGSFYAPFDYWGQGTLVTVSS,low polyreactivity
18,QVQLVESGGGLVQARGSLRLSCAASGINFYHYPMGWYRQATGKEMELVAAINWGGSRTYYADSVKGRFTISRDNAKNTVYLQMNSLKPEDTAVYYCAAVYVPYYWLGRSRGLDYWGQGTQVTVSS,high polyreactivity
19,QVQLVESGGGLVQAGGSLRLSCAASGFTFYRYAMGWYRQAPGKERELVATISASGGSTYYADSVKGRFTISRDNAKNTVYLQMNSLKPEDTAVYYCAAEHYLWGYVVVREDYWGQGTQVTVSS,high polyreactivity
20,QVQLVESGGGLVQAGGSLRLSCAASGFIFEHYAMGWYRQAPVKERELVARISWRGGSTYYADSVKGRFTISRDNAKNTVYLQMNRLKPEDTAVYYCNALEVVYFGYYPSDYWGQGTQVTVSS,low polyreactivity
21,QVQLVESGGGLVQAGGSLRLSCAASGSIFDPYAMGWYRQAPGKERELVAAINGGSGSTFYADSVKGRFTISRDNAKNTVYLQMNSLKPEDTAVYYCAAKIWRYSPSYYPEPRGDYWGQGTQVTVSS,low polyreactivity
22,QVQLVESGGGLVQAGGSLRLSCAASGRIFSWYTMGWYRQAPGKERELVAAISWSGTSTYYADSVKGRFTISRDNAKNTVYLQMNSLKPEDTAVYYCARVLSPYYSTRYDHWGQGTQVTVSS,high polyreactivity

row,Sequence,polyreactivity (PSR sort gate)
1,QVQLVESGGGLVQAGGSLRLSCAASGRTLRSNAMGWYRQAPGKERELVAAISSNGGSTYYADSVKGRFTISRDNAKNTVYLQMNSLKPEDTAVYYCAALSYYYSDRMDYWGQGTQVTVSS,low polyreactivity
2,QVQLVESGRGLVQAGGRLRLSCAASGRTFSRNAMGRYRQAPGKERELVAAISFRGVSTYYADSEKGRFTISRDNAKNTVYLQLNSLKPEDTAVYYCARRYTSKGGYDYWGQGTQVTVSS,high polyreactivity
3,QVQLVESGGGLVQAGGSLRLSCDDSGGIFQENAMGWYTQAPGKERELVATSTRSTGSTYYADSVKGRFTISRDTAKNTVYLQMNSLKPEDTAVYYCAARRLSQYYRYAYKYDYWGQVTQVTVSS,high polyreactivity
4,QVQLVESGGGLVQAGCSLRLSCAASGTFGLYAMGWYRQAPGKERELVAAIRARGGSTYYADSVKGRFTISRDNAKNTVYLQMNSLKPEDTAVYYCAAEFWDVSLARKQWYDYWGQGTQVSVSS,high polyreactivity
5,QVQLVESGGGLVQAGGSRRLSCAASGLTVHDNGMGWYRQAPGQEREVVAAISWSDGTTYYADSVKGRVSISRDNAKNTVYLQMNSLKPEDTAVFYCAAEAYYFWDLVDEDYWGQGTQVTVSS,high polyreactivity
6,QVQLVESRGGLVQAGGSLRLSCAASGFTFVGYAMGWYRQAPGKERALVAAISRRGTPTYYADSVKGRFTISRDNAKNTVYLQMNSLKPEDTAVYFCAASNGYQAVTYDYWGQGTQVTVSS,high polyreactivity
7,QVQLVESGGVLVQAGGSLRLSCAASGRIFDDYAMGWYRQAPGKERELVAAIRSGGNSNYADSVKGRFTISRDNAKNTVYLQMNSLTPEETAVYYCAADEVRSAWRCSSPPDYDHWGQGTHVTVSS,low polyreactivity
8,QVQLVESGGGLVQAGGSLRLSCAASGFIITQYAMGWYSQEPGKERELVAAISGNGGRTYYADSVKGRFTISRDNAKYTVYLHLISLKPEDTAVYYCAVTYYWYGVRYDYWGQCTQVTVSS,high polyreactivity
9,QFQLVESGGGLVQAGGSLRLICAASGFIFRTYAMGWYRQAPGKAREFVAAITFSAGSTYYADSVKGRFTISRDNAKNTVYLQMNSLLPEDSAVYDCNVLKSWYGYSVTGRYVYWGQGTQVTVSS,low polyreactivity
10,QVQLVESGGGLVQAGGSLRLSCAASGFTFRDYAMGWYRPAPGKERELVAAIDIGTTTYYADSVKGRFTISRDNAKNTVYLQMNSLKPEDSAVYYCNKGTNRSGGYDSWGQGTQVTVSS,low polyreactivity
11,QVQLVESGGGLVQAGGSLRLSCAASGITFFENAMGWYRQAPGKERELVAAISYSGGNTYADSVKGRFTISRDNAKNTVYLQMNSLKPEDTAVYYCNADYAGWGEYDYWGQGTQVTVSS,low polyreactivity
12,QVQLVESGGGLVQAGGSLRLSCAASGLIIWYYAMGWYRQAPGKERELVAAISRSGGRTYYADSVKGRFTISRDNAKNTVYLQMNSLKPEDTAVNYCNADVYRGYDYWGQGTQVTVSS,high polyreactivity
13,QVQIVESGGGLVQAGGSLRLSCAASGSISVANAMGWYRQAPGKDRELVAAITDSGDDTYYADSVKGRFTISRDIAKNTVYLQMNSLKPEDTAVYYCAVEAWSVPPYDYWGQGTQVTVSS,low polyreactivity
14,QVQLVESGGGLVQAGGSLRLSCAASGLIFVSNAMGWYRQAPGKERELVAAISWSGSRTYYADSVKGRFTISRENAKNTVYLQMNSLKPEDTAVYYCNAVRRGLPVVGAYDYWGQGTQVTVSS,high polyreactivity
15,QVQLVESGGGLVQAGGSLRLSCAASGSTFVYYAMGWYRQAPGKERELVAVITWSGGRTYYADSVKGRFTISRDNAKNTVYVLMNSLKPEDTAVYYCAARYPGYQYGLDYWGEGTQVTVSS,high polyreactivity
16,QDQLVESGGGLVQAGGTLRLSGAASGRTFDRNAMGWYRQAPGKAWEVVAGITRSGDSTYADSVKGRFTISRDNAKNTVYLQMNSLKPEDTAVYYCNKEGTVGGTRGYWGQGTQVTVSS,low polyreactivity
17,QVQIVESGGGLVQAGGSLRLSCAASGSTFDDYVMGWYRQAPGKEREFVAAISTNGGSTYYADSVKGRFTISRDNAKNTVYLQMNSLKPEDTAVYYCAAESQDFYAILGLYDYWGQGTQVTVSS,low polyreactivity
18,QVQLVESGGGLVQAGGSLRLSCAASGSIFYNAMGWYRQAPGKERELVAAISQRGTRTYYADSVKGRFTISRDNAKKTVYLQMNSLKPEDTAVYYCNRGGWRQYDSWGQGTQVTVSS,high polyreactivity
19,QVKLVESGGGLVQAGGSLRLSCAAYGSTFAGYAMGWYRQAPGKERELVAAISVSGGSTDYADSVKGRFTISRDNAKNTVYLQMNSLKPEDTAVYYCAAVYVRNQWWRNYYWGQGTQVTVSS,low polyreactivity
20,QVQLVESGGGLVQAGGSLRLSFAASGSTFYYHAMGWYRQAPGKERELVAAIRSTGSTNYADSVKGRFTISRDNAKNTVYLQMNSLKPEDTAVYYCAARIRRTRGYNYWGQGTQVTVSS,high polyreactivity
21,QVQLVESGGGLVQAGGSLRLSCAASGFIFVRYAMGWYRQAPGKERELVAAISTSGSSTYYADSVKGRFTISRDNAKNTVFLQMNSLKPEDTAVYYCAAKDRGQSYGYWGQGTQVTVSS,high polyreactivity
